Laboratory results reported in paper PMC10786891, “Massively parallel profiling of RNA-targeting CRISPR-Cas13d”.

Biological target: T1, EsCas13d, nuclease-dead (Eubacterium siraeum, UniProt B0MS50, R295A;H300A;R849A;H854A)
T1 sequence: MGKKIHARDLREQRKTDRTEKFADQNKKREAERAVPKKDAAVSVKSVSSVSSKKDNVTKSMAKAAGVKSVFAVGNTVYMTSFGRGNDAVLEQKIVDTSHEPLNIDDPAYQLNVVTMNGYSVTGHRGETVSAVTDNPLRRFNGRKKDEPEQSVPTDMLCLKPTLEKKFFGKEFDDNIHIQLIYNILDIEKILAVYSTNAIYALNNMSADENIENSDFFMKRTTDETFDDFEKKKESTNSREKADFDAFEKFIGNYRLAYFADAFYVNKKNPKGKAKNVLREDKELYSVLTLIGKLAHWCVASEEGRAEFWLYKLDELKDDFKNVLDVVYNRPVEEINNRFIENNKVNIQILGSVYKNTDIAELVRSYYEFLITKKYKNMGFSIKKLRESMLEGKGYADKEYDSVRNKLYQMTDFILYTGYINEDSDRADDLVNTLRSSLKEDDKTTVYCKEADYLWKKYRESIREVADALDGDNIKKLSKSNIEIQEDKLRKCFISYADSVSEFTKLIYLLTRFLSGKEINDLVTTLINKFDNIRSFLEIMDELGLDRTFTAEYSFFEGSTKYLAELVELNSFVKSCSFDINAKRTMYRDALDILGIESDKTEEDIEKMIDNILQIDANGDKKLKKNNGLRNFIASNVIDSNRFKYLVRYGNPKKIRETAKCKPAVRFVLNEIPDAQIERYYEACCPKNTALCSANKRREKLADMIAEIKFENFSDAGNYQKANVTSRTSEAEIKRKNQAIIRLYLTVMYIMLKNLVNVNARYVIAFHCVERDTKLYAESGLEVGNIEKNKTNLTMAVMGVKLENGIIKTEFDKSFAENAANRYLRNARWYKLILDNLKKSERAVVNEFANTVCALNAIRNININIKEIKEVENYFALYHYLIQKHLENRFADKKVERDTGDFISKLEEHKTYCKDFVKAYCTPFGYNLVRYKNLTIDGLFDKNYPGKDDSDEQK
Experiment: crRNA (strand 1, pre-loaded); Mg2+; 40 mM Tris-HCl pH 7.5, 150 mM NaCl, 6 mM MgCl2, 1 mM DTT, 0.1% Tween-20, 0.2 mg/ml BSA; 25 C; 10 min per concentration, then washed
Details: tags: His6-TwinStrep-SUMO cleaved; N-terminal SNAP kept (SNAP-Surface 488); label: 3' end held by stalled T7 RNA polymerase

B1: target 1 insU 3' of 15,insC 3' of 8 (mixed)
RNA 1: CACCCGUGCAAAAAUGCAGGGGUCUAAAACUGAGCGGAUAACCUCUCUAUGG
RNA 2: GGGAAUGGAUCCACAUCUACGAAUUCGUACCAUAGAGUAGGUUAUCCCGCUCACCGAGAUCGGAAGAGCACACGU
For B1, which Kd is on record?
The Kd was 0.042 ± 0.006 µM.

B2: target 1 insC 3' of 10,insG 3' of 7 (mixed)
RNA 1: CACCCGUGCAAAAAUGCAGGGGUCUAAAACUGAGCGGAUAACCUCUCUAUGG
RNA 2: GGGAAUGGAUCCACAUCUACGAAUUCGUACCAUAGAGAGGUUCAUCGCGCUCACCGAGAUCGGAAGAGCACACGU
For B2, which Kd is on record?
Its Kd is 0.0168 ± 0.0014 µM.

B3: target 1 insA 3' of 19,insC 3' of 14 (mixed)
RNA 1: CACCCGUGCAAAAAUGCAGGGGUCUAAAACUGAGCGGAUAACCUCUCUAUGG
RNA 2: GGGAAUGGAUCCACAUCUACGAAUUCGUACCAUAAGAGACGGUUAUCCGCUCACCGAGAUCGGAAGAGCACACGU
For B3, which Kd is on record?
Its Kd is about 0.07 µM.

B4: target 1 complement block 7-13 (mixed)
RNA 1: CACCCGUGCAAAAAUGCAGGGGUCUAAAACUGAGCGGAUAACCUCUCUAUGG
RNA 2: GGGAAUGGAUCCACAUCUACGAAUUCGUACCAUAGAGACCAAUAGCGCUCACCGAGAUCGGAAGAGCACACGU
Which Kd does the source give for B4 here?
The Kd was 0.079 ± 0.016 µM.

B5: target 1 insG 3' of 20,insG 3' of 7 (mixed)
RNA 1: CACCCGUGCAAAAAUGCAGGGGUCUAAAACUGAGCGGAUAACCUCUCUAUGG
RNA 2: GGGAAUGGAUCCACAUCUACGAAUUCGUACCAGUAGAGAGGUUAUCGCGCUCACCGAGAUCGGAAGAGCACACGU
With B5 as the binder, how does the Kd read?
Its Kd is 0.029 ± 0.005 µM.

B6: target 1 C6G,U19G (mixed)
RNA 1: CACCCGUGCAAAAAUGCAGGGGUCUAAAACUGAGCGGAUAACCUCUCUAUGG
RNA 2: GGGAAUGGAUCCACAUCUACGAAUUCGUACCAGAGAGAGGUUAUCGGCUCACCGAGAUCGGAAGAGCACACGU
For B6, which Kd is on record?
Its Kd is 0.042 ± 0.005 µM.

B7: target 1 U3C,C6A (mixed)
RNA 1: CACCCGUGCAAAAAUGCAGGGGUCUAAAACUGAGCGGAUAACCUCUCUAUGG
RNA 2: GGGAAUGGAUCCACAUCUACGAAUUCGUACCAUAGAGAGGUUAUCAGCCCACCGAGAUCGGAAGAGCACACGU
B7 was tested. Which Kd did it give?
The Kd was 0.0142 ± 0.0015 µM.

B8: target 1 G5C,A16C (mixed)
RNA 1: CACCCGUGCAAAAAUGCAGGGGUCUAAAACUGAGCGGAUAACCUCUCUAUGG
RNA 2: GGGAAUGGAUCCACAUCUACGAAUUCGUACCAUAGCGAGGUUAUCCCCUCACCGAGAUCGGAAGAGCACACGU
How did the Kd turn out when B8 was run?
The Kd was 0.088 ± 0.015 µM.

B9: target 1 insA 3' of 13,insC 3' of 9 (mixed)
RNA 1: CACCCGUGCAAAAAUGCAGGGGUCUAAAACUGAGCGGAUAACCUCUCUAUGG
RNA 2: GGGAAUGGAUCCACAUCUACGAAUUCGUACCAUAGAGAGAGUUACUCCGCUCACCGAGAUCGGAAGAGCACACGU
Which Kd does the source give for B9 here?
The Kd was 0.008 ± 0.0004 µM.

B10: target 1 insG 3' of 11,insA 3' of 7 (mixed)
RNA 1: CACCCGUGCAAAAAUGCAGGGGUCUAAAACUGAGCGGAUAACCUCUCUAUGG
RNA 2: GGGAAUGGAUCCACAUCUACGAAUUCGUACCAUAGAGAGGUGUAUCACGCUCACCGAGAUCGGAAGAGCACACGU
With B10 as the binder, how does the Kd read?
The Kd was 0.0217 ± 0.0018 µM.

B11: target 1 U3A,C6G (mixed)
RNA 1: CACCCGUGCAAAAAUGCAGGGGUCUAAAACUGAGCGGAUAACCUCUCUAUGG
RNA 2: GGGAAUGGAUCCACAUCUACGAAUUCGUACCAUAGAGAGGUUAUCGGCACACCGAGAUCGGAAGAGCACACGU
For B11, which Kd is on record?
The Kd was 0.00527 ± 0.00015 µM.

B12: target 1 insC 3' of 19,insG 3' of 7 (mixed)
RNA 1: CACCCGUGCAAAAAUGCAGGGGUCUAAAACUGAGCGGAUAACCUCUCUAUGG
RNA 2: GGGAAUGGAUCCACAUCUACGAAUUCGUACCAUCAGAGAGGUUAUCGCGCUCACCGAGAUCGGAAGAGCACACGU
B12 was tested. Which Kd did it give?
The Kd was 0.0241 ± 0.0013 µM.

B13: target 1 insA 3' of 21,insG 3' of 8 (mixed)
RNA 1: CACCCGUGCAAAAAUGCAGGGGUCUAAAACUGAGCGGAUAACCUCUCUAUGG
RNA 2: GGGAAUGGAUCCACAUCUACGAAUUCGUACCAAUAGAGAGGUUAUGCCGCUCACCGAGAUCGGAAGAGCACACGU
How did the Kd turn out when B13 was run?
The Kd was 0.0298 ± 0.0028 µM.

B14: target 1 insA 3' of 21,insU 3' of 15 (mixed)
RNA 1: CACCCGUGCAAAAAUGCAGGGGUCUAAAACUGAGCGGAUAACCUCUCUAUGG
RNA 2: GGGAAUGGAUCCACAUCUACGAAUUCGUACCAAUAGAGUAGGUUAUCCGCUCACCGAGAUCGGAAGAGCACACGU
With B14 as the binder, how does the Kd read?
Its Kd is 0.0316 ± 0.0035 µM.

B15: target 1 insU 3' of 21,insU 3' of 1 (mixed)
RNA 1: CACCCGUGCAAAAAUGCAGGGGUCUAAAACUGAGCGGAUAACCUCUCUAUGG
RNA 2: GGGAAUGGAUCCACAUCUACGAAUUCGUACCUAUAGAGAGGUUAUCCGCUCAUCCGAGAUCGGAAGAGCACACGU
For B15, which Kd is on record?
The Kd was 0.0242 ± 0.0018 µM.

B16: target 1 C7U,U10A (mixed)
RNA 1: CACCCGUGCAAAAAUGCAGGGGUCUAAAACUGAGCGGAUAACCUCUCUAUGG
RNA 2: GGGAAUGGAUCCACAUCUACGAAUUCGUACCAUAGAGAGGUAAUUCGCUCACCGAGAUCGGAAGAGCACACGU
Which Kd does the source give for B16 here?
The Kd was 0.0078 ± 0.0004 µM.

B17: target 1 C2U,G13U (mixed)
RNA 1: CACCCGUGCAAAAAUGCAGGGGUCUAAAACUGAGCGGAUAACCUCUCUAUGG
RNA 2: GGGAAUGGAUCCACAUCUACGAAUUCGUACCAUAGAGAUGUUAUCCGCUUACCGAGAUCGGAAGAGCACACGU
With B17 as the binder, how does the Kd read?
The Kd was 0.068 ± 0.02 µM.

B18: target 1 insA 3' of 17,insG 3' of 11 (mixed)
RNA 1: CACCCGUGCAAAAAUGCAGGGGUCUAAAACUGAGCGGAUAACCUCUCUAUGG
RNA 2: GGGAAUGGAUCCACAUCUACGAAUUCGUACCAUAGAAGAGGUGUAUCCGCUCACCGAGAUCGGAAGAGCACACGU
For B18, which Kd is on record?
Its Kd is 0.086 ± 0.021 µM.

B19: target 1 insG 3' of 22,insU 3' of 21 (mixed)
RNA 1: CACCCGUGCAAAAAUGCAGGGGUCUAAAACUGAGCGGAUAACCUCUCUAUGG
RNA 2: GGGAAUGGAUCCACAUCUACGAAUUCGUACGCUAUAGAGAGGUUAUCCGCUCACCGAGAUCGGAAGAGCACACGU
B19 was tested. Which Kd did it give?
The Kd was 0.03 ± 0.0025 µM.

B20: target 1 insU 3' of 22,insA 3' of 15 (mixed)
RNA 1: CACCCGUGCAAAAAUGCAGGGGUCUAAAACUGAGCGGAUAACCUCUCUAUGG
RNA 2: GGGAAUGGAUCCACAUCUACGAAUUCGUACUCAUAGAGAAGGUUAUCCGCUCACCGAGAUCGGAAGAGCACACGU
B20 was tested. Which Kd did it give?
The Kd was 0.0137 ± 0.0031 µM.

B21: target 1 G13A,A20C (mixed)
RNA 1: CACCCGUGCAAAAAUGCAGGGGUCUAAAACUGAGCGGAUAACCUCUCUAUGG
RNA 2: GGGAAUGGAUCCACAUCUACGAAUUCGUACCCUAGAGAAGUUAUCCGCUCACCGAGAUCGGAAGAGCACACGU
B21 was tested. Which Kd did it give?
The Kd was 0.075 ± 0.029 µM.

B22: target 1 del2,del9 (mixed)
RNA 1: CACCCGUGCAAAAAUGCAGGGGUCUAAAACUGAGCGGAUAACCUCUCUAUGG
RNA 2: GGGAAUGGAUCCACAUCUACGAAUUCGUACCAUAGAGAGGUUUCCGCUACCGAGAUCGGAAGAGCACACGU
With B22 as the binder, how does the Kd read?
Its Kd is 0.063 ± 0.009 µM.

B23: target 1 A20U,C22U (mixed)
RNA 1: CACCCGUGCAAAAAUGCAGGGGUCUAAAACUGAGCGGAUAACCUCUCUAUGG
RNA 2: GGGAAUGGAUCCACAUCUACGAAUUCGUAUCUUAGAGAGGUUAUCCGCUCACCGAGAUCGGAAGAGCACACGU
How did the Kd turn out when B23 was run?
The Kd was 0.045 ± 0.008 µM.

B24: target 1 insG 3' of 14,insG 3' of 4 (mixed)
RNA 1: CACCCGUGCAAAAAUGCAGGGGUCUAAAACUGAGCGGAUAACCUCUCUAUGG
RNA 2: GGGAAUGGAUCCACAUCUACGAAUUCGUACCAUAGAGAGGGUUAUCCGCGUCACCGAGAUCGGAAGAGCACACGU
For B24, which Kd is on record?
Its Kd is 0.0075 ± 0.0008 µM.

B25: target 1 insC 3' of 20,insU 3' of 17 (mixed)
RNA 1: CACCCGUGCAAAAAUGCAGGGGUCUAAAACUGAGCGGAUAACCUCUCUAUGG
RNA 2: GGGAAUGGAUCCACAUCUACGAAUUCGUACCACUAGUAGAGGUUAUCCGCUCACCGAGAUCGGAAGAGCACACGU
How did the Kd turn out when B25 was run?
The Kd was 0.0169 ± 0.0022 µM.

B26: target 1 insU 3' of 14 (mixed)
RNA 1: CACCCGUGCAAAAAUGCAGGGGUCUAAAACUGAGCGGAUAACCUCUCUAUGG
RNA 2: GGGAAUGGAUCCACAUCUACGAAUUCGUACCAUAGAGAUGGUUAUCCGCUCACCGAGAUCGGAAGAGCACACGU
B26 was tested. Which Kd did it give?
Its Kd is 0.038 ± 0.004 µM.

B27: target 1 U3A,A18C (mixed)
RNA 1: CACCCGUGCAAAAAUGCAGGGGUCUAAAACUGAGCGGAUAACCUCUCUAUGG
RNA 2: GGGAAUGGAUCCACAUCUACGAAUUCGUACCAUCGAGAGGUUAUCCGCACACCGAGAUCGGAAGAGCACACGU
How did the Kd turn out when B27 was run?
The Kd was 0.05 ± 0.006 µM.

B28: target 1 insG 3' of 2,insC 3' of 1 (mixed)
RNA 1: CACCCGUGCAAAAAUGCAGGGGUCUAAAACUGAGCGGAUAACCUCUCUAUGG
RNA 2: GGGAAUGGAUCCACAUCUACGAAUUCGUACCAUAGAGAGGUUAUCCGCUCGACCCGAGAUCGGAAGAGCACACGU
Which Kd does the source give for B28 here?
Its Kd is 0.0104 ± 0.0013 µM.
